Experimental data from paper PMC5686756, “IKKγ-Mimetic Peptides Block the Resistance to Apoptosis Associated with Kaposi's Sarcoma-Associated Herpesvirus Infection” (Journal of Virology, 2017).

Target: ks-vFLIP (purified, thermofluor assay) (Kaposi's sarcoma-associated herpesvirus (KSHV)) (UniProt Q76RF1)
Experiment: thermofluor (thermal shift); 30 μM ks-vFLIP combined with IKKγ or mimetic peptides, SYPRO orange 1:1,000, 96-well plate, thermal denaturation

Chain of unmodified IKKγ 30-mer peptide (residues 224 to 253) (Q9Y6K9 224-253): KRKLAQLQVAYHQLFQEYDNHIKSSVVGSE
Chain of IKKγ fragment encompassing residues 150 to 272 (Q9Y6K9 150-272): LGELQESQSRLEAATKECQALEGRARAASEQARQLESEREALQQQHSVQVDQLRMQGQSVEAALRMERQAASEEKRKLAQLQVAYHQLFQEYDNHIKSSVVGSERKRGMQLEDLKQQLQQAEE

| Substance | shift in melting temperature at 30 μM | shift in melting temperature at 100 μM |
| --- | --- | --- |
| IKKγ fragment encompassing residues 150 to 272 (from UniProt Q9Y6K9 150-272) (domain or fragment) | 8 °C |  |
| unmodified IKKγ 21-mer peptide (residues 226 to 248) (from UniProt Q9Y6K9 226-248) |  | 4 °C |
| unmodified IKKγ 30-mer peptide (residues 224 to 253) (from UniProt Q9Y6K9 224-253) |  | 4 °C |
